# Laboratory results from publication PMC5832994 (ACS Central Science, 2018).
# Where no end group is shown, it is not given here. Side-chain parts run from the residue outwards. The star is where a group is joined. PEG4 (disulfide) = PEG4 chain joined to the cysteine by a disulfide bond, carrying benzylguanine; benzylguanine = O6-benzylguanine; Octanoyl = CCCCCCCC(=O)*
# Experiments:
# [1] = target: T1, human GHS-R1a (Homo sapiens, UniProt Q92847); test: Inositol phosphate (IP-1) accumulation assay, IP-One HTRF; format: cell-based; conditions: HEK293T-GHS-R1a cells; mean ± SEM, n = 2 assays in triplicate
# T1 construct: expressed in transfected cells; host or cells: HEK293T cells
# [2] = test system: MIN6 cells; test: Necrosis assay (propidium iodide/calcein); format: cell-based; conditions: 10 mM BME, 60 min incubation
# Experimental: For quantification of necrosis, MIN6 cells were labeled with 5 μM calcein-AM and 5 μM propidium iodide for 30 min. Cells were imaged in HEPES-bicarbonate buffer using the Crest X-Light spinning disk system, and excitation was performed at λ = 458–482 nm and λ = 543–558 nm for calcein and propidium iodide, respectively. Emitted signals were detected at λ = 500–550 nm and λ = 602–662 nm for calcein and propidium iodide, respectively. Total area was quantified using the threshold plugin for Fiji and expressed as the ratio propidium iodide/calcein, as described.[70]
# [3] = test system: MIN6 cells; test: Apoptosis assay (cleaved caspase 3 immunostaining); format: cell-based; conditions: 10 mM BME, 60 min incubation, n = 3 experiments
# Experimental: For quantification of apoptosis, MIN6 cells were incubated with 10 mM BME for the indicated times and fixed in 4% paraformaldehyde. Immunostaining was performed using an antibody against Cleaved Caspase 3 (CC3; 1:400; #9661, Cell Signaling Technology), before secondary goat antirabbit Alexa Fluor 633 (1:1000) and Hoechst 33342 staining. Cells were imaged using a Zeiss LSM 880 confocal microscope, with excitation delivered at λ = 405 nm and λ = 633 nm. Emitted signals were collected at λ = 410–550 nm and λ = 641–695 nm for Hoechst 33342 and Alexa Fluor 633, respectively. Total area was quantified using the threshold plugin for Fiji, and results were expressed as the ratio CC3/Hoechst, as described.[69]
# [4] = target: SNAP_GLP-1R (UniProt P43220)
# [5] = target: T2, human GHS-R1a (human, UniProt Q92847 1-366); test: cell-based or functional assay
# [6] = target: T2, human GHS-R1a; test: AlphaScreen or HTRF; Tag-lite HTRF competition (Cisbio) on HEK293T-GHS-R1a cells; Ki calculated from binding curves; the labelled tracer is not named; as in ref. 72; n = 2 assays in triplicate; conditions: one partner purified
# T2 sequence (Q92847 whole entry): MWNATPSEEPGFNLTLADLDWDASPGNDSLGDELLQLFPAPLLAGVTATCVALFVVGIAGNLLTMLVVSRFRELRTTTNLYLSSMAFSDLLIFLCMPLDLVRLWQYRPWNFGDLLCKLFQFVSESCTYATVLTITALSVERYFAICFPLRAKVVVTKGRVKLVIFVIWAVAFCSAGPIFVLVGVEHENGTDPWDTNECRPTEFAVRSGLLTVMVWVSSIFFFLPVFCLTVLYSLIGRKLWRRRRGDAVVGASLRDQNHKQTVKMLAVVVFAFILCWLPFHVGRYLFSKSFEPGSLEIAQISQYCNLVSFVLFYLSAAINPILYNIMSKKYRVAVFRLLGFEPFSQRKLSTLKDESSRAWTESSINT
# Chain of SNAP_GLP-1R (P43220 whole entry): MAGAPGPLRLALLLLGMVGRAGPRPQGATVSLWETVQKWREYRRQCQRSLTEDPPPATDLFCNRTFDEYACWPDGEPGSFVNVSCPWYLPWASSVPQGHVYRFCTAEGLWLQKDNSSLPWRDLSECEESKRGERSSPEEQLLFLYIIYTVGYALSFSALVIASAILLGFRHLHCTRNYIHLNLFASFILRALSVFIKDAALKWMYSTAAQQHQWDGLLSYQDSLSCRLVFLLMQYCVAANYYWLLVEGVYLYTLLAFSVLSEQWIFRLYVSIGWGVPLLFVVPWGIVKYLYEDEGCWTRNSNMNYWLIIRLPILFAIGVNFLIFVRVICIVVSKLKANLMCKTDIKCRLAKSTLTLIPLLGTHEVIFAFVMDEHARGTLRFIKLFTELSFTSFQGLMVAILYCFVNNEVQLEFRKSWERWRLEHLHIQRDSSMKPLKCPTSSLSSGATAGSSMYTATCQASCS
# T1 sequence (Q92847 whole entry): as the sequence (Q92847 whole entry) above
Molecule,EC50 of IP-1 accumulation (IP-One HTRF kit) in HEK293T-GHS-R1a cells [5] [nM],Ki [6] [nM],other results
CCCCCCCC(=O)OC[C@H](NC(=O)[C@H](CO)NC(=O)CN)C(=O)N[C@@H](Cc1ccccc1)C(=O)N[C@@H](CC(C)C)C(=O)N[C@@H](CO)C(=O)N1CCC[C@H]1C(=O)N[C@@H](CCC(=O)O)C(=O)N[C@@H](Cc1c[nH]cn1)C(=O)N[C@@H](CCC(N)=O)C(=O)N[C@@H](CCCNC(=N)N)C(=O)N[C@H](C(=O)N[C@@H](CCC(N)=O)C(=O)N[C@@H](CCC(N)=O)C(=O)N[C@@H](CCCNC(=N)N)C(=O)N[C@@H](CCCCN)C(=O)N[C@@H](CCC(=O)O)C(=O)N[C@@H](CO)C(=O)N[C@@H](CCCCN)C(=O)N[C@@H](CCCCN)C(=O)N1CCC[C@H]1C(=O)N1CCC[C@H]1C(=O)N[C@@H](C)C(=O)N[C@@H](CCCCN)C(=O)N[C@@H](CC(C)C)C(=O)N[C@@H](CCC(N)=O)C(=O)N1CCC[C@H]1C(=O)N[C@@H](CCCNC(=N)N)C(=O)NCC(=O)NCC(=O)N[C@@H](CS)C(=O)NCC(=O)O)C(C)C [ghrelinGGCG],–,–,EC50 [1]: 11.1 ± 0.4 nM
"OCCS [BME, beta-mercaptoethanol]",–,–,necrosis [2]: did not display significant signs of necrosis; apoptosis (cleaved caspase 3) [3]: did not display significant signs of necrosis (Figure S4a) or apoptosis
S39C-Ex4 (peptide),–,–,"EC50 of cAMP accumulation (LANCE TR-FRET, 30 min) in YFP-AD293-SNAP GLP-1R cells [4]: 98.8 pM"
GSS(Octanoyl)FLSPEHQRVQQRKESKKPPAKLQPRGGC([PEG4 (disulfide)-benzylguanine])G [GhrelON],5.5,6.1,–
GSS(Octanoyl)FLSPEHQRVQQRKESKKPPAKLQPRGGCG [ghrelinGGCG],11.2,19.6,–
